# According to patent publication US20150218230:
# Experiments:
# Assay in all cases: cell_activity
# [1] = test system: TALE-nuclease collection F HD-NG-HD (synthetic)
# [2] = test system: TALE-nuclease collection F HD-NN-NN (synthetic)
# [3] = test system: TALE-nuclease collection F NG-HD-HD (synthetic)
# [4] = test system: TALE-nuclease collection F NG-HD-NG (synthetic)
# [5] = test system: TALE-nuclease collection F NG-HD-NI (synthetic)
# [6] = test system: TALE-nuclease collection F NG-HD-NN (synthetic)
# [7] = test system: TALE-nuclease collection F NG-NG-HD (synthetic)
# [8] = test system: TALE-nuclease collection F NG-NG-NG (synthetic)
# [9] = test system: TALE-nuclease collection F NG-NG-NI (synthetic)
# [10] = test system: TALE-nuclease collection F NG-NG-NN (synthetic)
# [11] = test system: TALE-nuclease collection F NG-NI-HD (synthetic)
# [12] = test system: TALE-nuclease collection F NG-NI-NG (synthetic)
# [13] = test system: TALE-nuclease collection F NG-NI-NI (synthetic)
# [14] = test system: TALE-nuclease collection F NG-NI-NN (synthetic)
# [15] = test system: TALE-nuclease collection F NG-NN-HD (synthetic); conditions: GFP disruption, mammalian cells, rank 1
# [16] = test system: TALE-nuclease collection F NG-NN-NG (synthetic)
# [17] = test system: TALE-nuclease collection F NG-NN-NN (synthetic)
# [18] = test system: TALE-nuclease collection F NI-NG-HD (synthetic)
# [19] = test system: TALE-nuclease collection F NI-NN-NG (synthetic)
# [20] = test system: TALE-nuclease collection F NI-NN-NN (synthetic)
# [21] = test system: TALE-nuclease collection F NN-NG-NI (synthetic)
# [22] = test system: TALE-nuclease collection F NN-NI-HD (synthetic)
# [23] = test system: TALE-nuclease collection F NN-NI-NG (synthetic)
# [24] = test system: TALE-nuclease collection F NN-NI-NN (synthetic)
substance,measurement,setting,value
integrated GFP locus TALE-nuclease target,activity (% GFP negative cells),[1],3.9
same,activity (% GFP negative cells),[2],4.4
same,activity (% GFP negative cells),[3],18.9
same,activity (% GFP negative cells),[4],14.7
same,activity (% GFP negative cells),[5],4.5
same,activity (% GFP negative cells),[6],6.5
same,activity (% GFP negative cells),[7],21
same,activity (% GFP negative cells),[8],19.5
same,activity (% GFP negative cells),[9],9.4
same,activity (% GFP negative cells),[10],18.6
same,activity (% GFP negative cells),[11],22.8
same,activity (% GFP negative cells),[12],18.3
same,activity (% GFP negative cells),[13],12.6
same,activity (% GFP negative cells),[14],17.7
same,activity (% GFP negative cells),[15],28.8
same,activity (% GFP negative cells),[16],22.2
same,activity (% GFP negative cells),[17],19.8
same,activity (% GFP negative cells),[18],3.6
same,activity (% GFP negative cells),[19],5.9
same,activity (% GFP negative cells),[20],6.2
same,activity (% GFP negative cells),[21],7.6
same,activity (% GFP negative cells),[22],5.3
same,activity (% GFP negative cells),[23],5.1
same,activity (% GFP negative cells),[24],3.2
